Results from the supplement of paper PMC10724198.
± gives the standard deviation of the averaged measurements.

system: Saccharomyces cerevisiae; assay: protein stability index of tFT-peptide fusion (C-terminal peptide) (PSI (0-1 scale)); higher = more stable (slower turnover); conditions: genetic background: wild type; temperature: 30 C
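Further: PSI is a weighted mean of sequencing reads over stability bins, variants kept only with over 10 reads, mCherry proximal and sfGFP distal, peptide attached via GGGS linker.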

Sequence | protein stability index
DKKHRAPGIKIV | 0.5008 ± 0.0018
LKGVVRFISGQD | 0.71735 ± 0.00052
PCPHPLRPALIL | 0.704 ± 0.014
SRPPRSPPLPPV | 0.686 ± 0.046
PPHTLTSTIRPN | 0.73 ± 0.019
IARLLFPPPGPI | 0.643 ± 0.037
TASPPLHSFLGS | 0.679 ± 0.034
IPGVPEGLRSLH | 0.629 ± 0.06
VARRGLFLSISW | 0.596 ± 0.088
VLWLPPSPTPNL | 0.721 ± 0.1
VSGLRRLVAFAR | 0.518 ± 0.0061
SAFSSSLTALPP | 0.653 ± 0.022
VCARAGRALEDS | 0.674 ± 0.08
IPRRSSIPDKTP | 0.718 ± 0.045
SFRPPSTPRRRT | 0.695 ± 0.03
RLPHPPARVFSI | 0.691 ± 0.011
KAKKNNERAKHR | 0.681 ± 0.029
PPRHPSPGLVPT | 0.722 ± 0.04
LRMWFGLMRPDA | 0.66 ± 0.034
VGGGLGGGVVLV | 0.6993 ± 0.0011
LRLPPPPPLPHV | 0.704 ± 0.033
GSGGGVRRTIML | 0.739 ± 0.022
RIVLGCSVVLRG | 0.615 ± 0.012
YPHAGSTSLLLF | 0.685 ± 0.0073
VYFLDPSSPPWF | 0.752 ± 0.011
RHPEVGAATDGC | 0.708 ± 0.068

Sequence | protein stability index
FRLLFSFFWGYV | 0.595 ± 0.033
LCILIFLFRCIL | 0.551 ± 0.036
KSKKERREKKKA | 0.665 ± 0.031
SCYGPRAPFHSP | 0.581 ± 0.074
PPPTAPPTTTTR | 0.696 ± 0.055
GNKKENEKKEKK | 0.734 ± 0.022
GRRRSRGRPIDL | 0.754 ± 0.03
WPSTLHRGLSLP | 0.702 ± 0.074
KSGVWLWGGGGG | 0.724 ± 0.032
PPPPPPPSLLLP | 0.828 ± 0.041
YRRASGGTVEDM | 0.721 ± 0.024
DVFLFPGVYFRM | 0.594 ± 0.012
KKEKQKKKIKTK | 0.703 ± 0.055
SGIEAGAELGVG | 0.567 ± 0.011
EYKIKSIERRKK | 0.73 ± 0.04
ICVSVLIRHREL | 0.545 ± 0.019
AGSALSSAYTLM | 0.703 ± 0.13
QPDQSKPSTPEP | 0.674 ± 0.051
LAARRHRACPPR | 0.67 ± 0.014
PPPLPRPRSTAL | 0.674 ± 0.043
FWVESGVFFFRP | 0.667 ± 0.017
PSELGAGYVMGG | 0.6936 ± 0.0034
AGGRGGGGGGDA | 0.663 ± 0.0071
GVERLGGVLYVL | 0.6274 ± 0.0015
LPSPAFLTPPPL | 0.788 ± 0.1
KDCGSVRQGLRY | 0.754 ± 0.04

Sequence | protein stability index
VVLSASAALFTF | 0.578 ± 0.029
GEWIDVSGCRRG | 0.805 ± 0.28
SRGAFGPCEFFL | 0.712 ± 0.0076
SKSNIAGIRKEL | 0.6774 ± 0.0063
YTSTSTILRPFP | 0.676 ± 0.078
RPPLSSPPPPPP | 0.701 ± 0.017
PPGPPRPPPRTP | 0.689 ± 0.0036
VQAWYWGFFCST | 0.785 ± 0.036
PRLPPPPTPPLP | 0.649 ± 0.16
RLGNVGVGVGVG | 0.616 ± 0.039
WVSMDFTGLVNG | 0.628 ± 0.015
NRSERIKDNRGK | 0.723 ± 0.025
STRERPDRHAVS | 0.676 ± 0.016
HLPASLHLDYSI | 0.675 ± 0.043
MGYYDGIRYKEV | 0.735 ± 0.092
CILPVLRGMSPA | 0.616 ± 0.011
ACREVAGAPGGL | 0.671 ± 0.035
KRPVTPTFGRLQ | 0.645 ± 0.067
GNPGRTAHILQL | 0.655 ± 0.03
VGWGWGGGVVLV | 0.692 ± 0.0098
TANRVDDSILSS | 0.671 ± 0.024
PPPPPPPPPSPP | 0.704 ± 0.0066
SREYKRRTPSSK | 0.718 ± 0.03
ADPPLFYPPSHT | 0.69 ± 0.021
WCSVGVSGFVIR | 0.725 ± 0.0075
VGVCLVSLGSWL | 0.605 ± 0.013

Sequence | protein stability index
DPPLRPSSLPPP | 0.653 ± 0.0084
PTTTPHPHIATP | 0.711 ± 0.14
KKKKKIKKKHNK | 0.6859 ± 0.001
EKQKGIVQADKI | 0.665 ± 0.046
GFRCTVWGRAVI | 0.637 ± 0.052
RIKTRDVSGNYC | 0.708 ± 0.026
SDPLRLPNTCQH | 0.669 ± 0.009
APPAHPARSHTP | 0.69 ± 0.019
PPPAPPPLAPPL | 0.713 ± 0.0086
VFARKARGFDDV | 0.7188 ± 0.0065
SAPRFPARFYPL | 0.66705 ± 0.0003
DMTCSMEQHEDN | 0.663 ± 0.019
CYIFFFSRELFY | 0.5685 ± 0.0045
YRTPCPPLSPHS | 0.719 ± 0.062
FLFRSFACALPS | 0.522 ± 0.0081
WGGGCGRRIGCR | 0.7193 ± 0.007
KGRFTKTKLRVH | 0.5602 ± 0.0013
RSPRLRSRVRVP | 0.639 ± 0.083
PGSTCWLFEFLS | 0.711 ± 0.07
SAPQPPFPFPPS | 0.696 ± 0.0093
CIGVRFVNAHEG | 0.771 ± 0.1
GVLKQGSLPCRD | 0.706 ± 0.14
AVSLTLCISSIS | 0.5869 ± 0.0052
SFSSAVIPPFAP | 0.728 ± 0.053
PPPSSPPPLPLP | 0.681 ± 0.017
RQEFSGAPPHLI | 0.697 ± 0.029

Sequence | protein stability index
PPPAPPPPPSSR | 0.667 ± 0.007
KKNKHKEKIKKK | 0.723 ± 0.069
RRCGTERVKARE | 0.766 ± 0.023
VKTGIKQSLTEP | 0.6982 ± 0.0037
FTGACRCLDGPR | 0.669 ± 0.055
HITTNHLPTSCD | 0.73 ± 0.039
LFCVSGSRPLTF | 0.714 ± 0.034
TTPRAILPLSSI | 0.67 ± 0.043
FLLPPASLSLPP | 0.7074 ± 0.0034
QKTKEKKKKKRE | 0.708 ± 0.064
AGCGGIWGVWVL | 0.701 ± 0.072
PSLTLPPSPRFP | 0.7585 ± 0.0029
GGGHGGVGGGMG | 0.612 ± 0.057
LWGSGVYGKNEC | 0.703 ± 0.052
PPRGPPPPPADP | 0.7 ± 0.022
LCGAFLPPPFSR | 0.686 ± 0.052
SPCPLTVAPIIP | 0.644 ± 0.056
PSPLTPAAPFPL | 0.674 ± 0.056
FPPPPPPLTVLP | 0.728 ± 0.054
SELVARGGGGGW | 0.728 ± 0.07
LPLPPSFVHLPF | 0.732 ± 0.05
SPPLPPLPLLQL | 0.696 ± 0.021
SPPLTSPPPAPP | 0.7 ± 0.017
KVSPTAGLTSRI | 0.711 ± 0.061
PPAPPHPPPLSP | 0.695 ± 0.04
RNYEKRSIIVCK | 0.497 ± 0.031

Sequence | protein stability index
SVGPVGASIGGG | 0.6668 ± 0.0032
APRPRHFPTLPS | 0.812 ± 0.077
PLSLRLCYLPWY | 0.701 ± 0.0086
VGASRFRLSNCF | 0.677 ± 0.02
WLVCGRSFVFTL | 0.549 ± 0.058
PFFVRNTFTCSL | 0.735 ± 0.11
AVFGLEAVMRRG | 0.753 ± 0.15
PSSPTYVPPSFL | 0.6754 ± 0.0022
AVGGVFVSSGGL | 0.691 ± 0.013
EIDMLVVRNLKH | 0.664 ± 0.044
SGLPLLSSYATR | 0.72 ± 0.048
QERKKKRENKKE | 0.63688 ± 5.9e-05
PLLPPLPPPLPP | 0.692 ± 0.1
PPHPLLSPPPFP | 0.821 ± 0.088
RSTPALRPVDLE | 0.707 ± 0.049
PPPPLLPRTPPH | 0.54 ± 0.044
PSSHPLLPPPPP | 0.67 ± 0.06
LFPRFPPPAPPL | 0.723 ± 0.099
SFPPFSPLYSPP | 0.717 ± 0.067
WGGEVGQLLELW | 0.714 ± 0.048
LLSHPDLPPIPP | 0.503 ± 0.086
PPPPPDAPRSSL | 0.7043 ± 0.0066
ALPPPIPHPLFL | 0.701 ± 0.019
PLRRSTSPLILL | 0.648 ± 0.033
AGGAEAVRRAGG | 0.675 ± 0.019
SVPRPLSRPPFL | 0.697 ± 0.086

Sequence | protein stability index
PPPRPPLALSPP | 0.646 ± 0.032
LGFSDIMSSLVV | 0.801 ± 0.16
ARTGRELVLPKG | 0.663 ± 0.0089
FGWEGGEEMAGG | 0.788 ± 0.0097
IKSKCIQSKETT | 0.6037 ± 0.005
GCPIYSIIQIHR | 0.66818 ± 0.00019
VGGRDWADSLVV | 0.772 ± 0.015
DPGGLSNYSRAS | 0.67 ± 0.036
RVTMLPSSQRGI | 0.651 ± 0.033
CGSAIGEARDLG | 0.621 ± 0.021
TSPPPGTHTLQP | 0.626 ± 0.023
CLYLLFGLLHVG | 0.545 ± 0.02
PRSTWPFRLFVR | 0.531 ± 0.053
VRIGSEGPGREE | 0.677 ± 0.03
LVRCRKGEGRGA | 0.701 ± 0.032
EKVRICKWKGGI | 0.616 ± 0.061
SLSSTVPRFCEV | 0.6241 ± 0.0028
VRRHPQYPLLRV | 0.541 ± 0.0099
PPACSPSPPRSS | 0.723 ± 0.028
KRKQDKEAEKKS | 0.704 ± 0.019
ERINFSRRDFDC | 0.805 ± 0.059
CAGVGGGLVSLG | 0.688 ± 0.082
SSALVLSGPPHS | 0.782 ± 0.1
RFCRPVCRFNLG | 0.647 ± 0.063
HDRRGLRRISAT | 0.647 ± 0.0084
WRGRWVWGVGEV | 0.628 ± 0.069

Sequence | protein stability index
LSELCFAPRSPE | 0.706 ± 0.046
AEWGGSTGGCWG | 0.722 ± 0.15
LPSPISLSPPLP | 0.652 ± 0.051
HGTVQNIVARYV | 0.611 ± 0.026
RLVSPVLPLSRL | 0.728 ± 0.031
PSRRFLPEKRSL | 0.678 ± 0.0039
FCVQRWWGEGGH | 0.6176 ± 0.0017
SLPCLFPPPLLP | 0.726 ± 0.045
VMGFCDWLGVFL | 0.728 ± 0.012
HVTLGRGGVGPN | 0.681 ± 0.02
SRSLHGTEEYRE | 0.644 ± 0.099
LFSVLLFFFFHL | 0.522 ± 0.069
APPHPPPPLPPP | 0.6366 ± 0.0052
AGLLFDSPPLLV | 0.725 ± 0.034
PPHPPPPATPCP | 0.682 ± 0.013
PPPGSPLRPSRL | 0.748 ± 0.12
CTGLEGGGLPFR | 0.636 ± 0.12
DQKSGCPVRIYR | 0.623 ± 0.029
GSNCQVRMSIHR | 0.703 ± 0.011
PPCHPPPTTSEK | 0.677 ± 0.032
